Experimental data reported in patent US20090149389A1 (PURDUE RESEARCH FOUNDATION, published 2009).

Experiments:
Experiment in all cases: cell-based or functional assay
AMPK (r) = AMPK (r) (rat (r), UniProt Q09137 1-552, limits assumed)
ASK1 (h) = ASK1 (h) (human (h), UniProt Q99683 649-946, limits assumed)
BTK (h) = BTK (h) (human (h), UniProt Q06187 1-659)
CHK1 (h) = target: T1, CHK1 (h) (human (h), UniProt O14757 1-476)
T1 sequence (looked up): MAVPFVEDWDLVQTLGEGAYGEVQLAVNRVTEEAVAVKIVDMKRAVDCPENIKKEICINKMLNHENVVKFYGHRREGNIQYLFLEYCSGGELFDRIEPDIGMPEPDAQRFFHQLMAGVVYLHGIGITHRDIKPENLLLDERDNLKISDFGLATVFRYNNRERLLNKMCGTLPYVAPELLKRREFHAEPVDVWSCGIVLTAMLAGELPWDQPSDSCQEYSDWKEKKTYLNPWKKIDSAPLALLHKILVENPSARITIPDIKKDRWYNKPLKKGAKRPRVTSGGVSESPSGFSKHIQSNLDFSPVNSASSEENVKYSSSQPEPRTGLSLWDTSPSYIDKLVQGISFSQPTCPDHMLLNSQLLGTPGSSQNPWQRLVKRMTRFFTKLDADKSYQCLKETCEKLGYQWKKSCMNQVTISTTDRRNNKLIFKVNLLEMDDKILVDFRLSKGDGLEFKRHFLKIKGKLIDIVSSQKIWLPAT

CKIB (h) = CKIB (h) (human (h))
Flt3 (h) = target: T2, Flt3 (h) (human (h), UniProt P36888 564-993, limits assumed)
T2 sequence (looked up): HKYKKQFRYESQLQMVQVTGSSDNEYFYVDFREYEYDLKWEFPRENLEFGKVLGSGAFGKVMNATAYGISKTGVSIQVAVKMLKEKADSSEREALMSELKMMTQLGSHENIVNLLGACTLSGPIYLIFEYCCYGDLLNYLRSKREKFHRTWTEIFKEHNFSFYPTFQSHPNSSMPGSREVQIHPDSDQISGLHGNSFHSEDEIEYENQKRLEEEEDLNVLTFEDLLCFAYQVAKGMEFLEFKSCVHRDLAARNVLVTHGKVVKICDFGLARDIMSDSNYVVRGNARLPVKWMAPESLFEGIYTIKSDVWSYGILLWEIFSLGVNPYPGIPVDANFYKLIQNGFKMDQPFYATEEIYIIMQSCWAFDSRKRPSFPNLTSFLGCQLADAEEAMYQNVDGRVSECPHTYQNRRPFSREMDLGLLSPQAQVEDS

IGF-IR (h) = IGF-IR (h) (human (h), UniProt P08069 959-1367, limits assumed)
IGF-IR (h), sequence (P08069 959-1367 limits assumed): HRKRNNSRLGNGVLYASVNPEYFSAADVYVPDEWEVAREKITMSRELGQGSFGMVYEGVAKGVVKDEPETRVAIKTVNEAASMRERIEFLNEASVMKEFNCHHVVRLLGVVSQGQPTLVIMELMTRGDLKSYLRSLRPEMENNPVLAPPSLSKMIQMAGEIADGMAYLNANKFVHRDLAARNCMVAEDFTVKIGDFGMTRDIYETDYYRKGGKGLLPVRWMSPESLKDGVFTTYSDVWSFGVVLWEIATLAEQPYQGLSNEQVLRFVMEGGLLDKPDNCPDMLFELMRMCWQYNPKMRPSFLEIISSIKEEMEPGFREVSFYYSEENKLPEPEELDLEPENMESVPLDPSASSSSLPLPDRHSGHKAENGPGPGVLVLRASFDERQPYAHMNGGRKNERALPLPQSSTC

IRAK4 (h) = target: T3, IRAK4 (h) (human (h), UniProt Q9NWZ3 1-460, limits assumed)
T3 sequence (looked up): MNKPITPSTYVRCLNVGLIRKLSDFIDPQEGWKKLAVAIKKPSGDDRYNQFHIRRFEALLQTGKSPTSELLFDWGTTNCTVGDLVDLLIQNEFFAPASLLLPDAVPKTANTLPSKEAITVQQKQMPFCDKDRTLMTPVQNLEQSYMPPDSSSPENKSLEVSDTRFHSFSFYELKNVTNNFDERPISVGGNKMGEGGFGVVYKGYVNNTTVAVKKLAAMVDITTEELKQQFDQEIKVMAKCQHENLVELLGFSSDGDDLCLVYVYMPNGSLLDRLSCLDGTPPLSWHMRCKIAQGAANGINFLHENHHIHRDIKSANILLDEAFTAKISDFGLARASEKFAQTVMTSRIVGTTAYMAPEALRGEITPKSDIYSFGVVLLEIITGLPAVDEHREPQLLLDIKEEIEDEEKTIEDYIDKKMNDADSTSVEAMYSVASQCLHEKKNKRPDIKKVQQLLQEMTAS

JAK3 (h) = JAK3 (h) (human (h), UniProt P52333 781-1124, limits assumed)
JAK3 (h), sequence (P52333 781-1124 limits assumed): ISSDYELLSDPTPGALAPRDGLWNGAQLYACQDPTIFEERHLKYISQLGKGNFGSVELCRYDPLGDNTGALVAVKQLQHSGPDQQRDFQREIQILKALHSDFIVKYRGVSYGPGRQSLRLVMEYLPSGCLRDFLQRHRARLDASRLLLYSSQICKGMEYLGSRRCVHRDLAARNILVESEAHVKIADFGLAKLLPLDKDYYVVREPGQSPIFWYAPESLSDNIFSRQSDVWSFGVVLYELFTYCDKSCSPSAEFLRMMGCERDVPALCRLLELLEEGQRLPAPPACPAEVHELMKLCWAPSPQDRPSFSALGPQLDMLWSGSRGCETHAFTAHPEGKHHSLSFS

Met (h) = Met (h) (human (h), UniProt P08581 974-1390, limits assumed)
Met (h), sequence (P08581 974-1390 limits assumed): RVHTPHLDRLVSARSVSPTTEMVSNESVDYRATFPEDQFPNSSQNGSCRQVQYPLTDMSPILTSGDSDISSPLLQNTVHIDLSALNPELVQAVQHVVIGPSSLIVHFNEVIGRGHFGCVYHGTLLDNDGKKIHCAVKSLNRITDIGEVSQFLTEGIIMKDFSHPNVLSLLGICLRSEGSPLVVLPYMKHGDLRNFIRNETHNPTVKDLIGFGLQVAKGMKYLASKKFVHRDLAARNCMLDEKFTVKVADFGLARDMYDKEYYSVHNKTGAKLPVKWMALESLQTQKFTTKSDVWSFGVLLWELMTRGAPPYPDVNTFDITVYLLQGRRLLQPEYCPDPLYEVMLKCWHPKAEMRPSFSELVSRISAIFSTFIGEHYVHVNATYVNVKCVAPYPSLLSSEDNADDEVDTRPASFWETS

MKK6 (h) = target: T4, MKK6 (h) (human (h), UniProt P52564 1-334, limits assumed)
T4 sequence (looked up): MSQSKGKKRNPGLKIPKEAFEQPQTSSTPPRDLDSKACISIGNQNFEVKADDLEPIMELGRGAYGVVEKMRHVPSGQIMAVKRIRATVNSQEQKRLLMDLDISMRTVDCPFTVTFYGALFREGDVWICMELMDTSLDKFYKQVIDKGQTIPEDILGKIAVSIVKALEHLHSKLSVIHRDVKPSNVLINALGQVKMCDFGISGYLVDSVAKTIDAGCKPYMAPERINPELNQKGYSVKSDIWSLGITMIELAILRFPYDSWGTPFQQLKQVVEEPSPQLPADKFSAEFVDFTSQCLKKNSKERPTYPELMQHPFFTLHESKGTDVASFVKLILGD

MSK1 (h) = MSK1 (h) (human (h), UniProt O75582 1-802)
MSK1 (h), sequence (O75582 whole entry): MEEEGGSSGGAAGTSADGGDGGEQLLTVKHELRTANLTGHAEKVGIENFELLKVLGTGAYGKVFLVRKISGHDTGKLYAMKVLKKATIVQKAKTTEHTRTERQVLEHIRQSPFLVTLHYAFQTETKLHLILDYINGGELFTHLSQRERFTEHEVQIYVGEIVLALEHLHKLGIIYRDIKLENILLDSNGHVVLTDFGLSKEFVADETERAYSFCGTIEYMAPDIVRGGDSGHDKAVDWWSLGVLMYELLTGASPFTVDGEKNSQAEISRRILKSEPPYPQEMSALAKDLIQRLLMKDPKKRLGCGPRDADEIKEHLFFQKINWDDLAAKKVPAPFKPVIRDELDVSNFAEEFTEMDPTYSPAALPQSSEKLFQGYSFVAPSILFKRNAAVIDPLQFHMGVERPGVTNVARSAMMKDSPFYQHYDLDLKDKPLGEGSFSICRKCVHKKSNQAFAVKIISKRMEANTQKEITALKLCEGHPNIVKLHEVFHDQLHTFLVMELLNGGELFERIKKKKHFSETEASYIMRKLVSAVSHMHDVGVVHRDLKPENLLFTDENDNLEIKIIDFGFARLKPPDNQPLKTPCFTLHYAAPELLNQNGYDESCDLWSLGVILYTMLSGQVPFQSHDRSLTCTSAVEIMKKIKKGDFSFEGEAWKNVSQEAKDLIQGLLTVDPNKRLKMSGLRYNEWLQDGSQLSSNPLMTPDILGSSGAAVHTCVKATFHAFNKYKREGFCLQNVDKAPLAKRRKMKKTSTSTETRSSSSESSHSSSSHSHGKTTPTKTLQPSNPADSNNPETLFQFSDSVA

Pim-1 (h) = Pim-1 (h) (human (h), UniProt P11309 1-313)
Pim-1 (h), sequence (P11309 whole entry): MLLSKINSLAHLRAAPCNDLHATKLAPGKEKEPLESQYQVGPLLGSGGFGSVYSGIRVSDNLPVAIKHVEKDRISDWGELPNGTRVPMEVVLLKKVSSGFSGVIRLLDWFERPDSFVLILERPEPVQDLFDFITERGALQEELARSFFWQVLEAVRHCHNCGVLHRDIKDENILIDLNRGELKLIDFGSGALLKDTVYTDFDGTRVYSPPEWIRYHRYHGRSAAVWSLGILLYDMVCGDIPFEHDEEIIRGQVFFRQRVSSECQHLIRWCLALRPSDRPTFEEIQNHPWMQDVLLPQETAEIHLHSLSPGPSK

PRAK = target: T5, PRAK (UniProt Q8IW41 1-473, limits assumed)
T5 sequence (looked up): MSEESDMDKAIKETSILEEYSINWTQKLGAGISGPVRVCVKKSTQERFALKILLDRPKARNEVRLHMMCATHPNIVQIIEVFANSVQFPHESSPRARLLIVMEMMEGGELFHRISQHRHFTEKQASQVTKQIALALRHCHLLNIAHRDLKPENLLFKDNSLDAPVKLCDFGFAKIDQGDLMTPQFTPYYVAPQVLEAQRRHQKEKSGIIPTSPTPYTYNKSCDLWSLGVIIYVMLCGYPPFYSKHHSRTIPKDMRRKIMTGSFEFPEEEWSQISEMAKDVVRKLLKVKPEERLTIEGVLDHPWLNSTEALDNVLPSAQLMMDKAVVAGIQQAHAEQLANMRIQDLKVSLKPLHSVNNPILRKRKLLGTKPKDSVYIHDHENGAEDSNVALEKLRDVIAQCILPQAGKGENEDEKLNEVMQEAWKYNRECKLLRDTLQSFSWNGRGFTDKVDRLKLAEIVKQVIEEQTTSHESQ

BTK (h), sequence (Q06187 whole entry): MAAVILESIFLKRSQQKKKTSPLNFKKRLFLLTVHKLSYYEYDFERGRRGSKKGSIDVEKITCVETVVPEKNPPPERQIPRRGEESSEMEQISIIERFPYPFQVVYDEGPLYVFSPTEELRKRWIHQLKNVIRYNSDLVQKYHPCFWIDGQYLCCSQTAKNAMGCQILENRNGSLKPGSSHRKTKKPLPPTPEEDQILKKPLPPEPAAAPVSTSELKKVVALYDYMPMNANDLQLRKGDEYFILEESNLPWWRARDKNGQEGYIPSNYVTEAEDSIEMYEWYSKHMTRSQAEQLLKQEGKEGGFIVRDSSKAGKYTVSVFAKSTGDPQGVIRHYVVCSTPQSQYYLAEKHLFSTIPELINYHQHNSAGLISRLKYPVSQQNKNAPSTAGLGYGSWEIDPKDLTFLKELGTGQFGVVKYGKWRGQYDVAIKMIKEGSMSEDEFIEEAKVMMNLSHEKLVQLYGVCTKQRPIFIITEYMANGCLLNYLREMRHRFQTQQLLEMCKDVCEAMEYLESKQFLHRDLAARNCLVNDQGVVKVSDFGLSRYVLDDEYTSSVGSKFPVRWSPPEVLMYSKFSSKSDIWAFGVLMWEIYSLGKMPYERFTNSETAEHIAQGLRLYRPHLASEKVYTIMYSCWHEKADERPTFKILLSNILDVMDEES
AMPK (r), sequence (Q09137 whole entry): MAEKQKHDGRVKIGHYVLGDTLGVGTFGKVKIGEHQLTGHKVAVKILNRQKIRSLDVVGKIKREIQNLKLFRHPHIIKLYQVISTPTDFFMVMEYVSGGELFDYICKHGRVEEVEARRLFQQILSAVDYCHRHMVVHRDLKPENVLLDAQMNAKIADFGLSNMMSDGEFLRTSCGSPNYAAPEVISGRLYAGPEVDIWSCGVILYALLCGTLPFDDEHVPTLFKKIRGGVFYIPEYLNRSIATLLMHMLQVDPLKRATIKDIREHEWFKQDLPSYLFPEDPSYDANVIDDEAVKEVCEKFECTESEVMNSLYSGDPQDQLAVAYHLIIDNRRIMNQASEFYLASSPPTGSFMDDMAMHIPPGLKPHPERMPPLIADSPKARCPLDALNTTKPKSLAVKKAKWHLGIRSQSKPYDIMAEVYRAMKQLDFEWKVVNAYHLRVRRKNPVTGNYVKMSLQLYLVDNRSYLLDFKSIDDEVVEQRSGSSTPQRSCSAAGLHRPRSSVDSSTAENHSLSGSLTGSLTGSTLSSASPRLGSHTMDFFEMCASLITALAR
ASK1 (h), sequence (Q99683 649-946 limits assumed): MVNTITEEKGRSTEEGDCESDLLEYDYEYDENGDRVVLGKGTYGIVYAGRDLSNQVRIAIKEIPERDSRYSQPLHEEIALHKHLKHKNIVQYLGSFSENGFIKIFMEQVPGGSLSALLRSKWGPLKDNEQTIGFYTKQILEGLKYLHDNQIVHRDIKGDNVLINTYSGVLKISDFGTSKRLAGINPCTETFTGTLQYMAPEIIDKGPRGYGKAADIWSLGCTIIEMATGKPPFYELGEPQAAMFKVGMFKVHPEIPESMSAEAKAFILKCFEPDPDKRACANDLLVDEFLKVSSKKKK

KAFAKLAARLYRKALARQLGVAA
Profile-1 @ = 100 µm (kinase profiler assay) (AMPK (r)): 118
Profile-1 @ = 100 µm (kinase profiler assay) (ASK1 (h)): 48
Profile-1 @ = 100 µm (kinase profiler assay) (BTK (h)): 16
Profile-1 @ = 100 µm (kinase profiler assay) (CHK1 (h)): 68
Profile-1 @ = 100 µm (kinase profiler assay) (CKIB (h)): 97
Profile-1 @ = 100 µm (kinase profiler assay) (Flt3 (h)): 20
Profile-1 @ = 100 µm (kinase profiler assay) (IGF-IR (h)): 76
Profile-1 @ = 100 µm (kinase profiler assay) (IRAK4 (h)): 16
Profile-1 @ = 100 µm (kinase profiler assay) (JAK3 (h)): 91
Profile-1 @ = 100 µm (kinase profiler assay) (Met (h)): 22
Profile-1 @ = 100 µm (kinase profiler assay) (MKK6 (h)): 48
Profile-1 @ = 100 µm (kinase profiler assay) (MSK1 (h)): 13
Profile-1 @ = 100 µm (kinase profiler assay) (Pim-1 (h)): 1
Profile-1 @ = 100 µm (kinase profiler assay) (PRAK): 148
